According to PMC5397172:

Columns and labels:
Assay in all cases: EMSA
Flag-p65 (homodimer) = Flag-p65 (homodimer) (UniProt Q04206 1-551)
Flag-p50 (homodimer) = Flag-p50 (homodimer) (UniProt P19838 1-433)
HA-p65;Flag-p50 = HA-p65;Flag-p50 (human?;human?, UniProt Q04206;P19838 1-551;1-433, |)

Measured: binding result

Chain of Flag-p50 (homodimer) (P19838 1-433): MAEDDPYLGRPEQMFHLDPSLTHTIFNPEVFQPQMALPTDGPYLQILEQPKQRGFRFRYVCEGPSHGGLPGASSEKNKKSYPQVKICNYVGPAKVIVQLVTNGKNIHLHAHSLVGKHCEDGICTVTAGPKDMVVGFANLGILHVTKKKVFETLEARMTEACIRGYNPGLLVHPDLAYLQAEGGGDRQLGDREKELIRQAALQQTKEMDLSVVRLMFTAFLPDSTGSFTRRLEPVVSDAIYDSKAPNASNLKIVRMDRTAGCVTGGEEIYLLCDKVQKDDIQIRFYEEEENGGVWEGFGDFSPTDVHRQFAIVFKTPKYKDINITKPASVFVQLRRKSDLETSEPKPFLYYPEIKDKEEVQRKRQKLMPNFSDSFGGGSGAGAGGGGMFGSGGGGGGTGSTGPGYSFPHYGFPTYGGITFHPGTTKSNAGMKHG
Chain of HA-p65;Flag-p50 (Q04206 whole entry, chain 1 of 2): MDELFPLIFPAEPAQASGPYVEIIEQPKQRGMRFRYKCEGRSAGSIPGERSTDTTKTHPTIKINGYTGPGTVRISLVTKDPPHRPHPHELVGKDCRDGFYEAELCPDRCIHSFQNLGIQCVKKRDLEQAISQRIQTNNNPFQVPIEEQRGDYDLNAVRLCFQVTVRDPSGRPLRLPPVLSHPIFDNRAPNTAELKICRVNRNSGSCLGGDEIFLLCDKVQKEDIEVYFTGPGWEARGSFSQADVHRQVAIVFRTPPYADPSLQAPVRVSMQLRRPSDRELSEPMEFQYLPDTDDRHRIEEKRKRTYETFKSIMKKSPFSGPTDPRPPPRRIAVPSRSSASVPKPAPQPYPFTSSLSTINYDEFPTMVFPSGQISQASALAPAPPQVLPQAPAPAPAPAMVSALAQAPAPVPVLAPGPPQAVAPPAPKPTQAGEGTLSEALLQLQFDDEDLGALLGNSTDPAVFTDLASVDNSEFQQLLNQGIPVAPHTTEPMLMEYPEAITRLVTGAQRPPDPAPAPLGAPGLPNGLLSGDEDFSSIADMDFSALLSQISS
Chain of HA-p65;Flag-p50 (P19838 1-433, chain 2 of 2): as the sequence (P19838 1-433) above
Chain of Flag-p65 (homodimer) (Q04206 whole entry): as the sequence (Q04206 whole entry, chain 1 of 2) above

B1: Ig kappaB mutant (dsDNA)
DNA 1: AGTTGAATCCACTTTCCCAGG
DNA 2: CCTGGGAAAGTGGATTCAACT
no binding: all assays above
